The source of these data is patent US20170275366A1 (Pfizer, published 2017).

This assay deals with T1, recombinant protein consisting of the extracellular domain of the human EGFRVIII protein fused with a murine … (human; murine, UniProt P00533 25-645).
T1 construct: extracellular domain; It is described in the general methods as the reagent for detecting CAR on T cells by flow cytometry; also called EGFRvIII-mouse Fc detection reagent; not shown: murine IgG1 Fc fragment
In words: flow cytometry of CAR on primary T cells; by the general methods detected through binding of EGFRvIII ECD-mouse IgG1 Fc and a PE anti-mouse Fc antibody. The method, then: Transduction of T-cells with recombinant lentiviral vectors expression the CAR was carried out three days after T-cell purification/activation. Lentiviral vectors produced by Vectalys SA (Toulouse, France) by transfection of genomic and helper plasmids in HEK-293 cells may be used. Transductions were carried out at a multiplicity of infection of 5. CAR detection at the surface of T-cells is performed using a recombinant protein consisting on the extracellular domain of the human […] protein fused together with a murine IgG1 Fc fragment (produced by LakePharma). Binding of this protein to the CAR molecule is detected with a PE-conjugated secondary antibody (Jackson lmmunoresearch) targeting the mouse Fc portion of the protein, and analyzed by flow cytometry.

B1: 139-V5 CAR (other)
chain: DIQMTQSPSSLSASVGDRVTITCRASQGIRNNLAWYQQKPGKAPKRLIYAASNLQSGVPSRFTGSGSGTEFTLIVSSLQPEDFATYYCLQHHSYPLTSGGGTKVEIKGGGGSGGGGSGGGGSEVQVLESGGGLVQPGGSLRLSCAASGFTFSSYAMSWVRQAPGKGLEWVSAISGSGGSTNYADSVKGRFTISRDNSKNTLYLQMNSLRAEDTAVYYCAGSSGWSEYWGQGTLVTVSSEPKSPDKTHTCPPCPAPPVAGPSVFLFPPKPKDTLMIARTPEVTCVVVDVSHEDPEVKFNWYVDGVEVHNAKTKPREEQYNSTYRVVSVLTVLHQDWLNGKEYKCKVSNKALPAPIEKTISKAKGQPREPQVYTLPPSRDELTKNQVSLTCLVKGFYPSDIAVEWESNGQPENNYKTTPPVLDSDGSFFLYSKLTVDKSRWQQGNVFSCSVMHEALHNHYTQKSLSLSPGKKDPKIYIWAPLAGTCGVLLLSLVITLYCKRGRKKLLYIFKQPFMRPVQTTQEEDGCSCRFPEEEEGGCELRVKFSRSADAPAYQQGQNQLYNELNLGRREEYDVLDKRRGRDPEMGGKPRRKNPQEGLYNELQKDKMAEAYSEIGMKGERRRGKGHDGLYQGLSTATKDTYDALHMQALPPR
notes: Chimeric antigen receptor on the surface of primary T cells; also called CARs 139-V5; 25
In the case of B1, the binding result is given as “binds”.

B2: 139-V3 CAR (other)
chain: DIQMTQSPSSLSASVGDRVTITCRASQGIRNNLAWYQQKPGKAPKRLIYAASNLQSGVPSRFTGSGSGTEFTLIVSSLQPEDFATYYCLQHHSYPLTSGGGTKVEIKGGGGSGGGGSGGGGSEVQVLESGGGLVQPGGSLRLSCAASGFTFSSYAMSWVRQAPGKGLEWVSAISGSGGSTNYADSVKGRFTISRDNSKNTLYLQMNSLRAEDTAVYYCAGSSGWSEYWGQGTLVTVSSTTTPAPRPPTPAPTIASQPLSLRPEACRPAAGGAVHTRGLDFACDIYIWAPLAGTCGVLLLSLVITLYCKRGRKKLLYIFKQPFMRPVQTTQEEDGCSCRFPEEEEGGCELRVKFSRSADAPAYQQGQNQLYNELNLGRREEYDVLDKRRGRDPEMGGKPRRKNPQEGLYNELQKDKMAEAYSEIGMKGERRRGKGHDGLYQGLSTATKDTYDALHMQALPPR
notes: Chimeric antigen receptor on the surface of primary T cells (mRNA transfection); also called CARs 139-V3; 24
As to B2, the binding result was “binds”.

B3: MR1-V5 CAR (other)
chain: QVQLQQSGGGLVKPGASLKLSCVTSGFTFRKFGMSWVRQTSDKRLEWVASISTGGYNTYYSDNVKGRFTISRENAKNTLYLQMSSLKSEDTALYYCTRGYSSTSYAMDYWGQGTTVTVGGGGSGGGGSGGGGSDIELTQSPASLSVATGEKVTIRCMTSTDIDDDMNWYQQKPGEPPKFLISEGNTLRPGVPSRFSSSGTGTDFVFTIENTLSEDVGDYYCLQSFNVPLTFGDGTKLEKALEPKSPDKTHTCPPCPAPPVAGPSVFLFPPKPKDTLMIARTPEVTCVVVDVSHEDPEVKFNWYVDGVEVHNAKTKPREEQYNSTYRVVSVLTVLHQDWLNGKEYKCKVSNKALPAPIEKTISKAKGQPREPQVYTLPPSRDELTKNQVSLTCLVKGFYPSDIAVEWESNGQPENNYKTTPPVLDSDGSFFLYSKLTVDKSRWQQGNVFSCSVMHEALHNHYTQKSLSLSPGKKDPKIYIWAPLAGTCGVLLLSLVITLYCKRGRKKLLYIFKQPFMRPVQTTQEEDGCSCRFPEEEEGGCELRVKFSRSADAPAYQQGQNQLYNELNLGRREEYDVLDKRRGRDPEMGGKPRRKNPQEGLYNELQKDKMAEAYSEIGMKGERRRGKGHDGLYQGLSTATKDTYDALHMQALPPR
notes: Chimeric antigen receptor on the surface of primary T cells; It has the MR1 scFv, IgG1 hinge, CD8 alpha TM, 4-1BB and CD3 zeta; also called 27
For the molecule B3, the binding result is listed as “binds”.

B4: MR1-V3 CAR (other)
chain: QVQLQQSGGGLVKPGASLKLSCVTSGFTFRKFGMSWVRQTSDKRLEWVASISTGGYNTYYSDNVKGRFTISRENAKNTLYLQMSSLKSEDTALYYCTRGYSSTSYAMDYWGQGTTVTVGGGGSGGGGSGGGGSDIELTQSPASLSVATGEKVTIRCMTSTDIDDDMNWYQQKPGEPPKFLISEGNTLRPGVPSRFSSSGTGTDFVFTIENTLSEDVGDYYCLQSFNVPLTFGDGTKLEKALTTTPAPRPPTPAPTIASQPLSLRPEACRPAAGGAVHTRGLDFACDIYIWAPLAGTCGVLLLSLVITLYCKRGRKKLLYIFKQPFMRPVQTTQEEDGCSCRFPEEEEGGCELRVKFSRSADAPAYQQGQNQLYNELNLGRREEYDVLDKRRGRDPEMGGKPRRKNPQEGLYNELQKDKMAEAYSEIGMKGERRRGKGHDGLYQGLSTATKDTYDALHMQALPPR
notes: Chimeric antigen receptor on the surface of primary T cells; It has the MR1 scFv (VH, (G4S)3 linker, VL), CD8 alpha hinge, CD8 alpha TM, 4-1BB and CD3 zeta; also called 26
As for B4, the binding result was “binds”.
